Here are results for 15 molecules from article PMC10786891, “Massively parallel profiling of RNA-targeting CRISPR-Cas13d”.

Substitutions are numbered along the chain they refer to. In names and notes the source's numbering stands.

To fix the notation:
T1: EsCas13d, nuclease-dead (Eubacterium siraeum, UniProt B0MS50, R295A;H300A;R849A;H854A)
T1 sequence: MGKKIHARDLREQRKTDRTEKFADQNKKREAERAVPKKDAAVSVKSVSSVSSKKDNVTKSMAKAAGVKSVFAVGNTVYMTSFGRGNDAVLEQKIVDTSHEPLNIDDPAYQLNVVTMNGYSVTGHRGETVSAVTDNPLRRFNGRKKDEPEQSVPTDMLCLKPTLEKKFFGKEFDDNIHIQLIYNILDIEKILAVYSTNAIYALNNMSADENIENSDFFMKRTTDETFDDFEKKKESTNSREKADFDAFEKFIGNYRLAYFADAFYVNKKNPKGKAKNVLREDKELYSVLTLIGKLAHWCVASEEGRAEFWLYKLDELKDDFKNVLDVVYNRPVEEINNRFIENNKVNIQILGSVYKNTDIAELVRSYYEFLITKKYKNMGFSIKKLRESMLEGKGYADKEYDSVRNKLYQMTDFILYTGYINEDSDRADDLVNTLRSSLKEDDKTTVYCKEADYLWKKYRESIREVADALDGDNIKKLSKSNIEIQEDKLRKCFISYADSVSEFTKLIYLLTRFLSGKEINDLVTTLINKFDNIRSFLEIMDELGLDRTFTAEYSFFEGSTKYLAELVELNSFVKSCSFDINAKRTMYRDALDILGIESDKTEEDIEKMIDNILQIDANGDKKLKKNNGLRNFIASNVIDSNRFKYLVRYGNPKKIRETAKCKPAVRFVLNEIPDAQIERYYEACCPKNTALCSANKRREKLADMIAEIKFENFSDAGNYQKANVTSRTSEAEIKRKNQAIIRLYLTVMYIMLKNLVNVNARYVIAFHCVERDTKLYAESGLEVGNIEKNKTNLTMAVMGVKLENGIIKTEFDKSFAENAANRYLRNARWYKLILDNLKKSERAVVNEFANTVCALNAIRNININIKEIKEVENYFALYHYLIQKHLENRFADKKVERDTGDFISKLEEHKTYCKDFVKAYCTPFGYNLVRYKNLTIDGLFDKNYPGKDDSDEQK

B1: target 1 G5A,G12U (mixed)
RNA 1: CACCCGUGCAAAAAUGCAGGGGUCUAAAACUGAGCGGAUAACCUCUCUAUGG
RNA 2: GGGAAUGGAUCCACAUCUACGAAUUCGUACCAUAGAGAGUUUAUCCACUCACCGAGAUCGGAAGAGCACACGU
B2: target 1 insU 3' of 20,insC 3' of 11 (mixed)
RNA 1: B1 RNA 1
RNA 2: GGGAAUGGAUCCACAUCUACGAAUUCGUACCAUUAGAGAGGUCUAUCCGCUCACCGAGAUCGGAAGAGCACACGU
B3: target 1 C4G,A9U (mixed)
RNA 1: B1 RNA 1
RNA 2: B1 RNA 2 with U40G, A43U, A47G, C48G
B4: target 1 insU 3' of 13,insU 3' of 2 (mixed)
RNA 1: B1 RNA 1
RNA 2: GGGAAUGGAUCCACAUCUACGAAUUCGUACCAUAGAGAGUGUUAUCCGCUCUACCGAGAUCGGAAGAGCACACGU
B5: target 1 C2U,U3G (mixed)
RNA 1: B1 RNA 1
RNA 2: B1 RNA 2 with U40G, A47G, U49G, C50U
B6: target 1 C7A,G12C (mixed)
RNA 1: B1 RNA 1
RNA 2: B1 RNA 2 with U40C, C45A, A47G
B7: target 1 A9G,U19C (mixed)
RNA 1: B1 RNA 1
RNA 2: B1 RNA 2 with U33C, U40G, A43G, A47G
B8: target 1 insG 3' of 7,insU 3' of 4 (mixed)
RNA 1: B1 RNA 1
RNA 2: B4 RNA 2 with U40G, G41U, U43A, A44U, U45C, C46G, C51U, U52C
B9: target 1 insU 3' of 13,insC 3' of 5 (mixed)
RNA 1: B1 RNA 1
RNA 2: B4 RNA 2 with U50C, C51U, U52C
B10: target 1 insC 3' of 11,insG 3' of 7 (mixed)
RNA 1: B1 RNA 1
RNA 2: B4 RNA 2 with U40G, G41U, U42C, C47G, G48C, C49G, U50C, C51U, U52C
B11: target 1 A9U,U10A (mixed)
RNA 1: B1 RNA 1
RNA 2: B1 RNA 2 with U40G, U42A, A43U, A47G
B12: target 1 insA 3' of 15,insG 3' of 6 (mixed)
RNA 1: B1 RNA 1
RNA 2: B4 RNA 2 with G39A, U40G, C49G, U50C, C51U, U52C
B13: target 1 U3A,A9C (mixed)
RNA 1: B1 RNA 1
RNA 2: B1 RNA 2 with U40G, A43C, A47G, U49A
B14: target 1 insU 3' of 17,insG 3' of 8 (mixed)
RNA 1: B1 RNA 1
RNA 2: B2 RNA 2 with U34A, A35G, G36U, C43U, U44A, A45U, U46G
B15: target 1 C7U,U19A (mixed)
RNA 1: B1 RNA 1
RNA 2: B1 RNA 2 with U33A, U40G, C45U, A47G

A word on the Kd: it is the concentration at which binding is half-saturated. Higher therefore signals lower affinity.

The target of this data set is T1, EsCas13d, nuclease-dead. As to the kind of experiment: crRNA (strand 1, pre-loaded); Mg2+; 40 mM Tris-HCl pH 7.5, 150 mM NaCl, 6 mM MgCl2, 1 mM DTT, 0.1% Tween-20, 0.2 mg/ml BSA; 25 C; 10 min per concentration, then washed. To be noted: tags: His6-TwinStrep-SUMO cleaved; N-terminal SNAP kept (SNAP-Surface 488); label: 3' end held by stalled T7 RNA polymerase.
On to B1, for which the dissociation constant Kd was found to be 14.4 ± 1.4 nM.
Next, B2: 62 ± 18 nM; B3: 3.93 ± 0.23 nM.
Next, B4: 16.6 ± 2.1 nM; B5: 21 ± 4 nM; B6: 16.4 ± 1.1 nM.
Take B7: the affinity, expressed as Kd, was 33.8 ± 3.3 nM. This Kd is about 2.1-fold higher than that of the molecule before.
Next, B8: 6.4 ± 0.4 nM; B9: 21 ± 4 nM.
Next, B10: 23.8 ± 1.5 nM.
The same measure for B11: 20.5 ± 2.1 nM.
Take B12: the Kd came to 9.3 ± 0.5 nM.
In turn, B13 had a Kd of 14.6 ± 2 nM. This Kd lies about 1.6-fold higher than the previous one.
Next, B14: 21 ± 1.2 nM; B15: 34 ± 4 nM.
